Reference: article doi:10.1101/2022.12.22.521673 (bioRxiv, 2022)

Tests used:
[1] = molecular target: Rim4-FLAG (S. cerevisiae) (UniProt P38741); test: mass photometry
Bmh2 = molecular target: T1, Bmh2 (S. cerevisiae (endogenous in meiotic …, UniProt P34730 1-273)); test: mass photometry
T1 sequence (looked up): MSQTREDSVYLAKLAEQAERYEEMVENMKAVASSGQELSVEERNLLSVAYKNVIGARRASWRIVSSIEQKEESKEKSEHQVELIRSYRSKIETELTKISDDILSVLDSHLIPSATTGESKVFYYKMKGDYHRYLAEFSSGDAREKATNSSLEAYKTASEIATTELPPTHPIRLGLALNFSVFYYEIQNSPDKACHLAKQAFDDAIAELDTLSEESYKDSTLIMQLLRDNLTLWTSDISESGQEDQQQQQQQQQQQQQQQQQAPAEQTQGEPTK

recombinant Rim4-EGFP = molecular target: T2, recombinant Rim4-EGFP (S. cerevisiae, UniProt P38741 1-713); test: pull-down
T2 sequence (looked up): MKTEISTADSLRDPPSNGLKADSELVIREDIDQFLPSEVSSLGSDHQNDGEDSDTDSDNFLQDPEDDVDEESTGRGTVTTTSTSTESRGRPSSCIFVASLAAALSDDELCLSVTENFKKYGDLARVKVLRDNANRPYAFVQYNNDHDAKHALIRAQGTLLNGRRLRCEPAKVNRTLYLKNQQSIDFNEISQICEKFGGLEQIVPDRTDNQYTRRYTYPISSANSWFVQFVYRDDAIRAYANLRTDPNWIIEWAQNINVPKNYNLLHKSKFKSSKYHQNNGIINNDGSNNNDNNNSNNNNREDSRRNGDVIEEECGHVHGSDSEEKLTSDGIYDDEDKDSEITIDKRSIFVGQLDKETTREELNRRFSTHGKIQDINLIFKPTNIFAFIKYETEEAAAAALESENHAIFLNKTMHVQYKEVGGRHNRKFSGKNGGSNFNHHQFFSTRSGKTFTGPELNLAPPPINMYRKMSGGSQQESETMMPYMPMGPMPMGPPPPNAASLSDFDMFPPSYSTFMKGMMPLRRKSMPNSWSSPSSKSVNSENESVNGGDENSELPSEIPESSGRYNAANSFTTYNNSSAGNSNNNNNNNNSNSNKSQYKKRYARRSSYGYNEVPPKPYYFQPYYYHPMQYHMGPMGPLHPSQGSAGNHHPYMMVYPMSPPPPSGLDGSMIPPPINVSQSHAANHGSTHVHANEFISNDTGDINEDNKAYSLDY

recombinant Rim4-6×His = molecular target: T3, recombinant Rim4-6×His (S. cerevisiae, UniProt P38741 1-713); test: pull-down
T3 sequence (looked up): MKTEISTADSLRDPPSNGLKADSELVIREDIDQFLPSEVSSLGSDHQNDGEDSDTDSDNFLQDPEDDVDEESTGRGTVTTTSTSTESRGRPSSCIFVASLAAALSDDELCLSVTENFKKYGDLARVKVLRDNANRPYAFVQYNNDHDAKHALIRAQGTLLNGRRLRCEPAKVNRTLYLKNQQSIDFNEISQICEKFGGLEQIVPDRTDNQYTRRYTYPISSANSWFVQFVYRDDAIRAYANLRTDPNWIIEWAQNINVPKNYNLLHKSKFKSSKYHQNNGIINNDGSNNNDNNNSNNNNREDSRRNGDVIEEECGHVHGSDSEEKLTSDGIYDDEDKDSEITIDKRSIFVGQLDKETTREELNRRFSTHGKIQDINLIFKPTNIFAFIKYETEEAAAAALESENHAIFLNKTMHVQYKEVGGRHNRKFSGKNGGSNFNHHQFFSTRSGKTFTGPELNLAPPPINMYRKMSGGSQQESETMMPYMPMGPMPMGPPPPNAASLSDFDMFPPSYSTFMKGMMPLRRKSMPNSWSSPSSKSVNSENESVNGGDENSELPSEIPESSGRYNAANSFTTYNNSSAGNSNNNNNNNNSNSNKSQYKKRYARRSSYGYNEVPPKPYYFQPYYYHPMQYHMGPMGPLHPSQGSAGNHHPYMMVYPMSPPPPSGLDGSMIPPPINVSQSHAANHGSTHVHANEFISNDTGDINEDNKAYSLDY

Molecule	stoichiometry N [1]	stoichiometry N (Bmh2)	binding result (recombinant Rim4-EGFP)	binding result (recombinant Rim4-6×His)
Bmh2 (from UniProt P34730 1-273) (natural protein)	1	–	–	–
Bmh1 (natural protein, UniProt P29311 1-267, looked up) MSTSREDSVYLAKLAEQAERYEEMVENMKTVASSGQELSVEERNLLSVAYKNVIGARRASWRIVSSIEQKEESKEKSEHQVELICSYRSKIETELTKISDDILSVLDSHLIPSATTGESKVFYYKMKGDYHRYLAEFSSGDAREKATNASLEAYKTASEIATTELPPTHPIRLGLALNFSVFYYEIQNSPDKACHLAKQAFDDAIAELDTLSEESYKDSTLIMQLLRDNLTLWTSDMSESGQAEDQQQQQQHQQQQPPAAAEGEAPK	1	1	–	–
recombinant Cdc14-FLAG (enzyme, S. cerevisiae, UniProt Q00684 1-551, looked up) MRRSVYLDNTIEFLRGRVYLGAYDYTPEDTDELVFFTVEDAIFYNSFHLDFGPMNIGHLYRFAVIFHEILNDPENANKAVVFYSSASTRQRANAACMLCCYMILVQAWTPHQVLQPLAQVDPPFMPFRDAGYSNADFEITIQDVVYGVWRAKEKGLIDLHSFNLESYEKYEHVEFGDFNVLTPDFIAFASPQEDHPKGYLATKSSHLNQPFKSVLNFFANNNVQLVVRLNSHLYNKKHFEDIGIQHLDLIFEDGTCPDLSIVKNFVGAAETIIKRGGKIAVHCKAGLGRTGCLIGAHLIYTYGFTANECIGFLRFIRPGMVVGPQQHWLYLHQNDFREWKYTTRISLKPSEAIGGLYPLISLEEYRLQKKKLKDDKRVAQNNIEGELRDLTMTPPSNGHGALSARNSSQPSTANNGSNSFKSSAVPQTSPGQPRKGQNGSNTIEDINNNRNPTSHANRKVVIESNNSDDESMQDTNGTSNHYPKVSRKKNDISSASSSRMEDNEPSATNINNAADDTILRQLLPKNRRVTSGRRTTSAAGGIRKISGSIKK	–	–	binds	binds
